Results published in PMC9360328, “Tenuous Transcriptional Threshold of Human Sex Determination. I. SRY and Swyer Syndrome at the Edge of Ambiguity”.

Experiments:
Assay in all cases: FRET titration; 15 C, 25 nM DNA; FRET titration: 10 mM potassium phosphate, 10 mM Tris-HCl, 140 mM KCl, 1 mM EDTA, 1 mM DTT, pH 8.4, 15 C, 25 nM DNA; PGE: 10 nM DNA, 20 nM protein, 0.5x TBE, 4
Settings in all cases: protein: recombinant; label: 5'-6-FAM (hexanyl linker) on upper strand; 5'-TAMRA (hexanyl linker) on lower strand; blunt
SRY HMG box Y72H (Y127H) = SRY HMG box Y72H (Y127H) (Homo sapiens, UniProt Q05066 56-141, Y127H)
SRY HMG box Y72H (Y127H), sequence (Q05066 56-141 Y127H): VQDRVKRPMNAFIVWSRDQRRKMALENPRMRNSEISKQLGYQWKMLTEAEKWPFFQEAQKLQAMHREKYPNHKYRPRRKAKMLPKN

SRY HMG box Y72F (Y127F) = SRY HMG box Y72F (Y127F) (Homo sapiens, UniProt Q05066 56-141, Y127F)
SRY HMG box Y72F (Y127F), sequence (Q05066 56-141 Y127F): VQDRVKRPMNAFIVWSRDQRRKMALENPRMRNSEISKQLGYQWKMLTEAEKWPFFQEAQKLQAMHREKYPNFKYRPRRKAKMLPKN

SRY HMG box Y72C (Y127C) = SRY HMG box Y72C (Y127C) (Homo sapiens, UniProt Q05066 56-141, Y127C)
SRY HMG box Y72C (Y127C), sequence (Q05066 56-141 Y127C): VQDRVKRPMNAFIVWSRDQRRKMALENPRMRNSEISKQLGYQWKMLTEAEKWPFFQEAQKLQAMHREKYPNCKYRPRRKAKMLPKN

B1: 15-bp consensus SRY site, FRET-labeled (dsDNA)
DNA 1: TCGGTGATTGTTCAG
DNA 2: CTGAACAATCACCGA
For B1, the Kd (SRY HMG box Y72H (Y127H)) was 19 ± 4 nM, the Kd (SRY HMG box Y72F (Y127F)) was 12 ± 3 nM and the Kd (SRY HMG box Y72C (Y127C)) was 21 ± 5 nM.
